Data reported in patent US12649776B2, “Scaffold proteins and therapeutic nanoconjugates based on nidogen” (UNIVERSITAT AUTÒNOMA DE BARCELONA, priority 2019, dated 2026).

Tests used:
[1] = Volume size distribution of protein nanoparticles and nanoconjugates by Dynamic Light Scattering (DLS); assay type: physicochemical; conditions: self-assembled material in storage (carbonate) buffer
Method: Volume size distribution of all protein nanoparticles and nanoconjugates were determined by Dynamic Light Scattering (DLS) at 633 nm in a Zetasizer Nano ZS (Malvern Instruments) in triplicate.
Volume size distribution of protein nanoparticles was determined in a Zetasizer Nano ZS (Malvern Instruments) by Dynamic Light Scattering (DLS) at 633 nm in triplicates.
The integrity of the recombinant proteins was checked by mass spectrometry (MALDI-TOF), TGX (Tris-Glycine eXtended) Stain-Free acrylamide gels electrophoresis (BioRad) and Western Blot analysis using anti-His monoclonal antibody (1:1000; Santa Cruz, ref. 57598). Protein concentration was determined by Bradford (Biorad) assay with an Albumin (Roche) standard curve. GFP fluorescence emission (510 nm) was determined on purified proteins with a Cary Eclipse fluorescence spectrophotometer (Agilent Technologies) using an excitation wavelength of 450 nm. The volume and size distribution of nanoparticles were measured by dynamic light scattering (DLS) at 633 nm through a Zetasizer Nano ZS (Malvern Instruments) using quartz cuvettes.

[2] = literature value; cited from earlier work
CXCR4+ SW1417 cells = experiment: Protein internalization of EPIX4 / T22 / biparatopic nanoparticles (flow cytometry); assay type: cell-based, human; conditions: 1 μM
Method: (§1) Experiments were performed in CXCR4+ cervical and colorectal cell lines (HeLa and SW1417, respectively). HeLa cells were cultured in Eagle's Minimum Essential Medium (Gibco) and SW1417 in Dulbecco's Modified Eagle's Medium (Gibco). Both cell lines were supplemented with 10% fetal bovine serum (Gibco) and incubated in a humidified atmosphere at 37° C. and 5% (HeLa) or 10% (SW1417) of CO2.
(§2) For testing protein internalization, cells were seeded in 24-well plates (Nunc) (30000 cells wells^−1) for 24 h. Briefly, the medium was removed, and cells were washed with PBS. Then protein was incubated at 1 and 2 μM, diluted in OptiPro medium supplemented with L-Glutamine and incubated at different times, at suitable cell line conditions. Then, harsh trypsin digestion (1 mg ml^−1 for 15 min) (Gibco) was carried out to remove protein particles bound to the outer size of the cell membranes. Intracellular green fluorescence was analyzed by flow cytometry on an FACS-Calibur system (Becton Dickinson) using a 15 mW air-cooled argon ion laser at 488 nm excitation. Fluorescence emission was measured with a D detector (530/30 nm band pass filter), and manually corrected by the specific fluorescence of purified protein, to get data representative of the amount of internalized protein for comparative purposes. […]

CXCR4+ HeLa cells = experiment: Protein internalization of EPIX4 / T22 / biparatopic nanoparticles (flow cytometry, AMD3100 competition, confocal); assay type: cell-based, human; conditions: 1 μM
Method: as §1, §2

## T22-GFP-H6: Modular protein: T22 ligand, Green Fluorescent Protein scaffold, C-terminal poly-histidine [reference compound]
[1]
  Nanoparticle size (volume size distribution, DLS): ~11 nm
[2]
  Tonset, 1: 75 °C
CXCR4+ SW1417 cells
  Time course of cell uptake: high uptake at short times
CXCR4+ HeLa cells
  Time course of cell uptake: high uptake at short times

## Human Collagen Type I: human collagen type I, literature comparator (Leikina et al)
[2]
  Tm: 40.3° C.^
  Tonset, 1: 38.2 °C
